Target: T1, FcγRIIIa (human, UniProt P08637 17-208)
T1 construct: extracellular domain; also called 3a; FcγRIIIa extracellular domain
Assay: SPR (Biacore);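 also: antibody variants captured on an SPR sensor chip, with FcγRIIIa passed over as analyte in HBS-EP+ buffer at 25 °C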

T1 sequence (P08637 other isoform, or with tags, fused parts or gaps): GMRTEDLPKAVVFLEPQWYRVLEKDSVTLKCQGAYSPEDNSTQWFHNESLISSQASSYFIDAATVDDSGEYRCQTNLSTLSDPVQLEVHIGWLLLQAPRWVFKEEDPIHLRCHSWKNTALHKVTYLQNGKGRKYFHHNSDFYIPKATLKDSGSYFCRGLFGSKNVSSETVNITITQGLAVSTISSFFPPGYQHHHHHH

Binder	He/Con 3a
GpH7-A5/GpH7-B3 variant I332_01G/GpL16-k0 (antibody, human IgG1, kappa, copies: 1 + 1 + 2) heavy 1: not shown heavy 2: not shown light: DIVMTQSPLSLPVTPGEPASISCQASESLVHSNRNTYLHWYLQKPGQSPQLLIYKVSNRFSGVPDRFSGSGSGTDFTLKISRVEAEDVGVYYCSQNTHVPPTFGQGTKVEIERTVAAPSVFIFPPSDEQLKSGTASVVCLLNNFYPREAKVQWKVDNALQSGNSQESVTEQDSKDSTYSLSSTLTLSKADYEKHKVYACEVTHQGLSSPVTKSFNRGEC	101 % of GpH7-A5/GpH7-B3/GpL16-k0
GpH7-A5/GpH7-B3 variant I332_13S/GpL16-k0 (antibody, human IgG1, kappa, copies: 1 + 1 + 2) heavy 1: not shown heavy 2: not shown light: DIVMTQSPLSLPVTPGEPASISCQASESLVHSNRNTYLHWYLQKPGQSPQLLIYKVSNRFSGVPDRFSGSGSGTDFTLKISRVEAEDVGVYYCSQNTHVPPTFGQGTKVEIERTVAAPSVFIFPPSDEQLKSGTASVVCLLNNFYPREAKVQWKVDNALQSGNSQESVTEQDSKDSTYSLSSTLTLSKADYEKHKVYACEVTHQGLSSPVTKSFNRGEC	95.6 % of GpH7-A5/GpH7-B3/GpL16-k0
GpH7-A5/GpH7-B3 variant I332_15Y/GpL16-k0 (antibody, human IgG1, kappa, copies: 1 + 1 + 2) heavy 1: not shown heavy 2: not shown light: DIVMTQSPLSLPVTPGEPASISCQASESLVHSNRNTYLHWYLQKPGQSPQLLIYKVSNRFSGVPDRFSGSGSGTDFTLKISRVEAEDVGVYYCSQNTHVPPTFGQGTKVEIERTVAAPSVFIFPPSDEQLKSGTASVVCLLNNFYPREAKVQWKVDNALQSGNSQESVTEQDSKDSTYSLSSTLTLSKADYEKHKVYACEVTHQGLSSPVTKSFNRGEC	92.4 % of GpH7-A5/GpH7-B3/GpL16-k0
GpH7-A5/GpH7-B3 variant I336_03V/GpL16-k0 (antibody, human IgG1, kappa, copies: 1 + 1 + 2) heavy 1: not shown heavy 2: not shown light: DIVMTQSPLSLPVTPGEPASISCQASESLVHSNRNTYLHWYLQKPGQSPQLLIYKVSNRFSGVPDRFSGSGSGTDFTLKISRVEAEDVGVYYCSQNTHVPPTFGQGTKVEIERTVAAPSVFIFPPSDEQLKSGTASVVCLLNNFYPREAKVQWKVDNALQSGNSQESVTEQDSKDSTYSLSSTLTLSKADYEKHKVYACEVTHQGLSSPVTKSFNRGEC	107 % of GpH7-A5/GpH7-B3/GpL16-k0
GpH7-A5/GpH7-B3 variant I332_03V/GpL16-k0 (antibody, human IgG1, kappa, copies: 1 + 1 + 2) heavy 1: not shown heavy 2: not shown light: DIVMTQSPLSLPVTPGEPASISCQASESLVHSNRNTYLHWYLQKPGQSPQLLIYKVSNRFSGVPDRFSGSGSGTDFTLKISRVEAEDVGVYYCSQNTHVPPTFGQGTKVEIERTVAAPSVFIFPPSDEQLKSGTASVVCLLNNFYPREAKVQWKVDNALQSGNSQESVTEQDSKDSTYSLSSTLTLSKADYEKHKVYACEVTHQGLSSPVTKSFNRGEC	85.2 % of GpH7-A5/GpH7-B3/GpL16-k0
GpH7-A5/GpH7-B3 variant I332_18N/GpL16-k0 (antibody, human IgG1, kappa, copies: 1 + 1 + 2) heavy 1: not shown heavy 2: not shown light: DIVMTQSPLSLPVTPGEPASISCQASESLVHSNRNTYLHWYLQKPGQSPQLLIYKVSNRFSGVPDRFSGSGSGTDFTLKISRVEAEDVGVYYCSQNTHVPPTFGQGTKVEIERTVAAPSVFIFPPSDEQLKSGTASVVCLLNNFYPREAKVQWKVDNALQSGNSQESVTEQDSKDSTYSLSSTLTLSKADYEKHKVYACEVTHQGLSSPVTKSFNRGEC	84.9 % of GpH7-A5/GpH7-B3/GpL16-k0
GpH7-A5/GpH7-B3 variant I336_04F/GpL16-k0 (antibody, human IgG1, kappa, copies: 1 + 1 + 2) heavy 1: not shown heavy 2: not shown light: DIVMTQSPLSLPVTPGEPASISCQASESLVHSNRNTYLHWYLQKPGQSPQLLIYKVSNRFSGVPDRFSGSGSGTDFTLKISRVEAEDVGVYYCSQNTHVPPTFGQGTKVEIERTVAAPSVFIFPPSDEQLKSGTASVVCLLNNFYPREAKVQWKVDNALQSGNSQESVTEQDSKDSTYSLSSTLTLSKADYEKHKVYACEVTHQGLSSPVTKSFNRGEC	93.2 % of GpH7-A5/GpH7-B3/GpL16-k0
GpH7-A5/GpH7-B3 variant I332_19Q/GpL16-k0 (antibody, human IgG1, kappa, copies: 1 + 1 + 2) heavy 1: not shown heavy 2: not shown light: DIVMTQSPLSLPVTPGEPASISCQASESLVHSNRNTYLHWYLQKPGQSPQLLIYKVSNRFSGVPDRFSGSGSGTDFTLKISRVEAEDVGVYYCSQNTHVPPTFGQGTKVEIERTVAAPSVFIFPPSDEQLKSGTASVVCLLNNFYPREAKVQWKVDNALQSGNSQESVTEQDSKDSTYSLSSTLTLSKADYEKHKVYACEVTHQGLSSPVTKSFNRGEC	101 % of GpH7-A5/GpH7-B3/GpL16-k0
GpH7-A5/GpH7-B3 variant I332_04F/GpL16-k0 (antibody, human IgG1, kappa, copies: 1 + 1 + 2) heavy 1: not shown heavy 2: not shown light: DIVMTQSPLSLPVTPGEPASISCQASESLVHSNRNTYLHWYLQKPGQSPQLLIYKVSNRFSGVPDRFSGSGSGTDFTLKISRVEAEDVGVYYCSQNTHVPPTFGQGTKVEIERTVAAPSVFIFPPSDEQLKSGTASVVCLLNNFYPREAKVQWKVDNALQSGNSQESVTEQDSKDSTYSLSSTLTLSKADYEKHKVYACEVTHQGLSSPVTKSFNRGEC	89.3 % of GpH7-A5/GpH7-B3/GpL16-k0
GpH7-A5/GpH7-B3 variant I332_08L/GpL16-k0 (antibody, human IgG1, kappa, copies: 1 + 1 + 2) heavy 1: not shown heavy 2: not shown light: DIVMTQSPLSLPVTPGEPASISCQASESLVHSNRNTYLHWYLQKPGQSPQLLIYKVSNRFSGVPDRFSGSGSGTDFTLKISRVEAEDVGVYYCSQNTHVPPTFGQGTKVEIERTVAAPSVFIFPPSDEQLKSGTASVVCLLNNFYPREAKVQWKVDNALQSGNSQESVTEQDSKDSTYSLSSTLTLSKADYEKHKVYACEVTHQGLSSPVTKSFNRGEC	76 % of GpH7-A5/GpH7-B3/GpL16-k0
GpH7-A5/GpH7-B3 variant I332_14T/GpL16-k0 (antibody, human IgG1, kappa, copies: 1 + 1 + 2) heavy 1: not shown heavy 2: not shown light: DIVMTQSPLSLPVTPGEPASISCQASESLVHSNRNTYLHWYLQKPGQSPQLLIYKVSNRFSGVPDRFSGSGSGTDFTLKISRVEAEDVGVYYCSQNTHVPPTFGQGTKVEIERTVAAPSVFIFPPSDEQLKSGTASVVCLLNNFYPREAKVQWKVDNALQSGNSQESVTEQDSKDSTYSLSSTLTLSKADYEKHKVYACEVTHQGLSSPVTKSFNRGEC	110 % of GpH7-A5/GpH7-B3/GpL16-k0
GpH7-A5/GpH7-B3 variant I336_02A/GpL16-k0 (antibody, human IgG1, kappa, copies: 1 + 1 + 2) heavy 1: not shown heavy 2: not shown light: DIVMTQSPLSLPVTPGEPASISCQASESLVHSNRNTYLHWYLQKPGQSPQLLIYKVSNRFSGVPDRFSGSGSGTDFTLKISRVEAEDVGVYYCSQNTHVPPTFGQGTKVEIERTVAAPSVFIFPPSDEQLKSGTASVVCLLNNFYPREAKVQWKVDNALQSGNSQESVTEQDSKDSTYSLSSTLTLSKADYEKHKVYACEVTHQGLSSPVTKSFNRGEC	106 % of GpH7-A5/GpH7-B3/GpL16-k0
GpH7-A5/GpH7-B3 variant I332_09D/GpL16-k0 (antibody, human IgG1, kappa, copies: 1 + 1 + 2) heavy 1: not shown heavy 2: not shown light: DIVMTQSPLSLPVTPGEPASISCQASESLVHSNRNTYLHWYLQKPGQSPQLLIYKVSNRFSGVPDRFSGSGSGTDFTLKISRVEAEDVGVYYCSQNTHVPPTFGQGTKVEIERTVAAPSVFIFPPSDEQLKSGTASVVCLLNNFYPREAKVQWKVDNALQSGNSQESVTEQDSKDSTYSLSSTLTLSKADYEKHKVYACEVTHQGLSSPVTKSFNRGEC	189 % of GpH7-A5/GpH7-B3/GpL16-k0
GpH7-A5/GpH7-B3 variant I332_02A/GpL16-k0 (antibody, human IgG1, kappa, copies: 1 + 1 + 2) heavy 1: not shown heavy 2: not shown light: DIVMTQSPLSLPVTPGEPASISCQASESLVHSNRNTYLHWYLQKPGQSPQLLIYKVSNRFSGVPDRFSGSGSGTDFTLKISRVEAEDVGVYYCSQNTHVPPTFGQGTKVEIERTVAAPSVFIFPPSDEQLKSGTASVVCLLNNFYPREAKVQWKVDNALQSGNSQESVTEQDSKDSTYSLSSTLTLSKADYEKHKVYACEVTHQGLSSPVTKSFNRGEC	103 % of GpH7-A5/GpH7-B3/GpL16-k0
GpH7-A5/GpH7-B3 variant I336_01G/GpL16-k0 (antibody, human IgG1, kappa, copies: 1 + 1 + 2) heavy 1: not shown heavy 2: not shown light: DIVMTQSPLSLPVTPGEPASISCQASESLVHSNRNTYLHWYLQKPGQSPQLLIYKVSNRFSGVPDRFSGSGSGTDFTLKISRVEAEDVGVYYCSQNTHVPPTFGQGTKVEIERTVAAPSVFIFPPSDEQLKSGTASVVCLLNNFYPREAKVQWKVDNALQSGNSQESVTEQDSKDSTYSLSSTLTLSKADYEKHKVYACEVTHQGLSSPVTKSFNRGEC	94.6 % of GpH7-A5/GpH7-B3/GpL16-k0
GpH7-A5/GpH7-B3 variant I332_16H/GpL16-k0 (antibody, human IgG1, kappa, copies: 1 + 1 + 2) heavy 1: not shown heavy 2: not shown light: DIVMTQSPLSLPVTPGEPASISCQASESLVHSNRNTYLHWYLQKPGQSPQLLIYKVSNRFSGVPDRFSGSGSGTDFTLKISRVEAEDVGVYYCSQNTHVPPTFGQGTKVEIERTVAAPSVFIFPPSDEQLKSGTASVVCLLNNFYPREAKVQWKVDNALQSGNSQESVTEQDSKDSTYSLSSTLTLSKADYEKHKVYACEVTHQGLSSPVTKSFNRGEC	89 % of GpH7-A5/GpH7-B3/GpL16-k0
GpH7-A5/GpH7-B3 variant I332_12R/GpL16-k0 (antibody, human IgG1, kappa, copies: 1 + 1 + 2) heavy 1: not shown heavy 2: not shown light: DIVMTQSPLSLPVTPGEPASISCQASESLVHSNRNTYLHWYLQKPGQSPQLLIYKVSNRFSGVPDRFSGSGSGTDFTLKISRVEAEDVGVYYCSQNTHVPPTFGQGTKVEIERTVAAPSVFIFPPSDEQLKSGTASVVCLLNNFYPREAKVQWKVDNALQSGNSQESVTEQDSKDSTYSLSSTLTLSKADYEKHKVYACEVTHQGLSSPVTKSFNRGEC	78.1 % of GpH7-A5/GpH7-B3/GpL16-k0
GpH7-A5/GpH7-B3 variant I336_06M/GpL16-k0 (antibody, human IgG1, kappa, printed 1336_06M, read as I336_06M; also called 1336_06M; copies: 1 + 1 + 2) heavy 1: not shown heavy 2: not shown light: DIVMTQSPLSLPVTPGEPASISCQASESLVHSNRNTYLHWYLQKPGQSPQLLIYKVSNRFSGVPDRFSGSGSGTDFTLKISRVEAEDVGVYYCSQNTHVPPTFGQGTKVEIERTVAAPSVFIFPPSDEQLKSGTASVVCLLNNFYPREAKVQWKVDNALQSGNSQESVTEQDSKDSTYSLSSTLTLSKADYEKHKVYACEVTHQGLSSPVTKSFNRGEC	104 % of GpH7-A5/GpH7-B3/GpL16-k0
GpH7-A5/GpH7-B3 variant I332_05P/GpL16-k0 (antibody, human IgG1, kappa, copies: 1 + 1 + 2) heavy 1: not shown heavy 2: not shown light: DIVMTQSPLSLPVTPGEPASISCQASESLVHSNRNTYLHWYLQKPGQSPQLLIYKVSNRFSGVPDRFSGSGSGTDFTLKISRVEAEDVGVYYCSQNTHVPPTFGQGTKVEIERTVAAPSVFIFPPSDEQLKSGTASVVCLLNNFYPREAKVQWKVDNALQSGNSQESVTEQDSKDSTYSLSSTLTLSKADYEKHKVYACEVTHQGLSSPVTKSFNRGEC	56.3 % of GpH7-A5/GpH7-B3/GpL16-k0
GpH7-A5/GpH7-B3 variant I332_06M/GpL16-k0 (antibody, human IgG1, kappa, copies: 1 + 1 + 2) heavy 1: not shown heavy 2: not shown light: DIVMTQSPLSLPVTPGEPASISCQASESLVHSNRNTYLHWYLQKPGQSPQLLIYKVSNRFSGVPDRFSGSGSGTDFTLKISRVEAEDVGVYYCSQNTHVPPTFGQGTKVEIERTVAAPSVFIFPPSDEQLKSGTASVVCLLNNFYPREAKVQWKVDNALQSGNSQESVTEQDSKDSTYSLSSTLTLSKADYEKHKVYACEVTHQGLSSPVTKSFNRGEC	92.5 % of GpH7-A5/GpH7-B3/GpL16-k0
GpH7-A5/GpH7-B3 variant I332_20W/GpL16-k0 (antibody, human IgG1, kappa, copies: 1 + 1 + 2) heavy 1: not shown heavy 2: not shown light: DIVMTQSPLSLPVTPGEPASISCQASESLVHSNRNTYLHWYLQKPGQSPQLLIYKVSNRFSGVPDRFSGSGSGTDFTLKISRVEAEDVGVYYCSQNTHVPPTFGQGTKVEIERTVAAPSVFIFPPSDEQLKSGTASVVCLLNNFYPREAKVQWKVDNALQSGNSQESVTEQDSKDSTYSLSSTLTLSKADYEKHKVYACEVTHQGLSSPVTKSFNRGEC	116 % of GpH7-A5/GpH7-B3/GpL16-k0
GpH7-A5/GpH7-B3 variant I332_10E/GpL16-k0 (antibody, human IgG1, kappa, copies: 1 + 1 + 2) heavy 1: not shown heavy 2: not shown light: DIVMTQSPLSLPVTPGEPASISCQASESLVHSNRNTYLHWYLQKPGQSPQLLIYKVSNRFSGVPDRFSGSGSGTDFTLKISRVEAEDVGVYYCSQNTHVPPTFGQGTKVEIERTVAAPSVFIFPPSDEQLKSGTASVVCLLNNFYPREAKVQWKVDNALQSGNSQESVTEQDSKDSTYSLSSTLTLSKADYEKHKVYACEVTHQGLSSPVTKSFNRGEC	213 % of GpH7-A5/GpH7-B3/GpL16-k0

From patent publication US20260167699A1 (Chugai, published 2026)
